Results taken from the supplement of paper PMC9732359.
± gives the uncertainty stated by the source.

Test: protein stability index of a GFP-peptide fusion (yeast GPS) (PSI 1-4); higher = more stable; sorted into four equal gates, so the index is relative within each strain
In short: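 For each peptide, the protein stability index sums the read frequency in every gate after multiplying it by the gate number. Read frequencies came from plasmids that were PCR-amplified from each gate and Illumina-sequenced, with reads assigned to strains by barcodes. The gates were four equal bins of GFP/Cherry fluorescence ratio applied to mid-log yeast in leucine-free medium carrying a pooled library of tiled 17-residue yeast protein peptides fused downstream of GFP on a Cherry-expressing plasmid.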

Sequence	protein stability index (doa10∆)	protein stability index (pdr5∆)	protein stability index (san1∆)	protein stability index (ubr1∆)
SMGTMICGYTRKEGPTI [PRE2]	3.27 ± 0.078	3.21 ± 0.077	3.33 ± 0.039	2.71 ± 0.069
CELQVETYGSMEMSEKI [RPN5]	2.76 ± 0.096	2.96 ± 0.074	2.71 ± 0.071	2.84 ± 0.077
LPNEAGRLEIFKIHTAK [RPT4]	2.6 ± 0.16	3.07 ± 0.16	2.92 ± 0.19	2.66 ± 0.11
LISNLLFSKNRNEVLES [YCS4]	1.96 ± 0.062	2.68 ± 0.06	2.97 ± 0.052	2.65 ± 0.056
TGKTLLARACAAQTNAT [RPT5]	2.72 ± 0.13	2.92 ± 0.089	2.9 ± 0.096	2.61 ± 0.29
IVAAGGGSGAATFSVSQ [CSL4]		3.47 ± 0.2		
SFDVAISTACPRLDDVV [SMC4]	3.12 ± 0.083	3.34 ± 0.051	3.1 ± 0.075	3.11 ± 0.078
DVDPIELVVFLPALCKK [RPL8A]	2.78 ± 0.092	2.8 ± 0.089	2.64 ± 0.13	3.03 ± 0.057
KSKTSTGKERSKKRKLN [SNM1]	3.1 ± 0.085	3.2 ± 0.097	3.644 ± 0.036	3.21 ± 0.09
LLICIGTSLKVAPVSEI [SIR2]	1.91 ± 0.11	2.01 ± 0.077	2.29 ± 0.18	1.79 ± 0.05
DGSQQNLQQDKTNFQDV [REC8]	3.23 ± 0.071	3.38 ± 0.054	3.42 ± 0.068	3.3 ± 0.038
VRCVNCSKSIPKDKAIK [RPS26A]	2.77 ± 0.067	3 ± 0.071	2.77 ± 0.063	2.82 ± 0.044
HKHNIMKNENANPKKLA [CDC53]	2.14 ± 0.042	2.31 ± 0.049	2 ± 0.064	2.35 ± 0.057
IGIVDYEAGASHGNPVV [FAS1]	3.01 ± 0.068	2.99 ± 0.064	3.03 ± 0.063	3.19 ± 0.04
FKNMGNTCYLNATLQAL [UBP6]	1.8 ± 0.083	1.92 ± 0.083	1.55 ± 0.12	1.83 ± 0.071
ELKIRSKTENVRRLEAQ [RPT6]	2.5 ± 0.16	2.53 ± 0.12	1.58 ± 0.27	2.53 ± 0.095
EWYLSHLCSGILSSVNR [SRB8]	1.41 ± 0.076	1.55 ± 0.079	1.25 ± 0.095	1.63 ± 0.044
LNYTVINFKSREAIRPG [AAR2]	3.07 ± 0.069	3.09 ± 0.068	3.15 ± 0.058	3.17 ± 0.042
LLVERLKEDDSSLYEAS [RPN1]	3.22 ± 0.12	3.38 ± 0.12	3.06 ± 0.1	3.16 ± 0.18
AERTMSKKETKLQENRT [SMC2]	2.84 ± 0.25	3.17 ± 0.19	3.31 ± 0.15	3.04 ± 0.13
SKELRAQYGIKALPIRR [RPL26A]	3.44 ± 0.19	3.41 ± 0.17	3.49 ± 0.14	
TLASLIRYNSVEIQEVP [RPC82]	2.62 ± 0.073	2.59 ± 0.051	2.48 ± 0.12	2.54 ± 0.077
ASITPYKLVNKNKENNT [RPN4]	1.08 ± 0.078	2.28 ± 0.092	2.48 ± 0.12	2.11 ± 0.07
LGHPDNYIPGNPLVTPA [COB]	2.49 ± 0.11	3.07 ± 0.13	2.93 ± 0.075	2.93 ± 0.068
SRENNSEYMVFGKLAFP [YJL039C/NUP192]	2.49 ± 0.064	2.54 ± 0.072	2.97 ± 0.069	2.79 ± 0.082
KYYLEESNVNDSDMLTK [NUT1]	3.13 ± 0.097	3.15 ± 0.082	3.31 ± 0.07	3.36 ± 0.086
LTATPNSINKTTVPFKE [POP1]	1.75 ± 0.061	2.44 ± 0.06	1.66 ± 0.14	2.48 ± 0.054

Sequence	protein stability index (doa10∆)	protein stability index (pdr5∆)	protein stability index (san1∆)	protein stability index (ubr1∆)
KSLGLKLPLSVINVSAQ [RPS17A]	1.35 ± 0.052	1.36 ± 0.048	1.41 ± 0.13	1.37 ± 0.073
MLGRAGRPRYDTFGEGI [BRR2]	3.25 ± 0.12	2.81 ± 0.14	3.15 ± 0.087	3.31 ± 0.15
ARQRGKLKKSEEKVLST [SRP68]	3.28 ± 0.19	3.21 ± 0.11	3.33 ± 0.071	3.67 ± 0.21
NDIAGQPQALQKSGRPV [RPO21]	2.93 ± 0.087	3.16 ± 0.12	2.84 ± 0.16	2.96 ± 0.073
FLVLYDVKTAEEASQLI [NUT1]	1.45 ± 0.047	1.93 ± 0.077	2.78 ± 0.061	3.01 ± 0.047
ELLRLANEQLKLFNRIV [CSN12]	2.3 ± 0.069	2.55 ± 0.082	1.64 ± 0.085	1.92 ± 0.07
IPVYCFSHPAHQQRMSR [YCG1]	1.88 ± 0.037	2.04 ± 0.044	1.93 ± 0.046	2.04 ± 0.037
SLSEGCDILVATPGRLI [PRP28]	3.47 ± 0.12	3.23 ± 0.084	3.25 ± 0.047	3.28 ± 0.05
TTLDAEKVFTQGLNILE [FAS1]	3.17 ± 0.11	3.21 ± 0.1	3.32 ± 0.091	3.28 ± 0.064
RLNYLYQISAYQTRARQ [RPR2]	1.56 ± 0.034	1.84 ± 0.037	1.85 ± 0.054	1.89 ± 0.035
TIISPHKDIPEEDFYTV [DSN1]	3.21 ± 0.095	3.23 ± 0.15	2.44 ± 0.28	3.19 ± 0.054
LWDIMGDRQRLGEEHPL [RPT1]			3.31 ± 0.23	
VAALVSLTEKFSQTVAD [ECM29]	2.77 ± 0.08	1.61 ± 0.059	1.8 ± 0.14	1.67 ± 0.085
LRACAANVDQISFLEPI [YMR129W/POM152]	3.06 ± 0.072	2.98 ± 0.07	2.92 ± 0.05	2.97 ± 0.046
SNIDYQTLLANSDHAKF [SNF2]	2.24 ± 0.084	2.28 ± 0.093	2.32 ± 0.11	2.53 ± 0.075
NSDKPRDVYVFDKVEVQ [DIS3]	2.96 ± 0.058	2.93 ± 0.066	3.1 ± 0.056	3 ± 0.059
SATSTTEQTKSKNPLSL [YLR335W/NUP2]	2.95 ± 0.04	3.01 ± 0.047	2.58 ± 0.055	2.96 ± 0.044
TIRLWECGTGTTIHTFN [RPN14]	2.11 ± 0.18	2.4 ± 0.11	2.21 ± 0.12	1.99 ± 0.13
QVPLQQTQAIAQQQQLS [YGR119C/NUP57]	2.14 ± 0.08	2.41 ± 0.076	2.15 ± 0.077	2.29 ± 0.06
GNPLSIGTLEEIIDDDH [RPT2]	3.28 ± 0.1	3.43 ± 0.14	3.14 ± 0.076	3.24 ± 0.17
MSSEIAYSNTNTNTENE [SNF11]			2.64 ± 0.24	3.04 ± 0.2
LATLLGHNDWVSQVRVV [ASC1]	1.94 ± 0.085	2.37 ± 0.082	1.89 ± 0.1	1.8 ± 0.047
NKTKAVDNTVPSTTLFN [YOR098C/NUP1]	2.84 ± 0.087	2.58 ± 0.067	3.04 ± 0.054	3.15 ± 0.055
DPDKLKPNDLVGVNKDS [RPT5]	3.18 ± 0.11	3.32 ± 0.13	3.34 ± 0.055	3.41 ± 0.098
GRSDSNTEEKAELQSNL [YGL100W/SEH1]	1.61 ± 0.037	1.64 ± 0.051	1.4 ± 0.14	1.52 ± 0.039
ARDLFLKIYYKEEFSSD [RRI2]		2.44 ± 0.15	2.03 ± 0.22	2.9 ± 0.1
ILLEPIYEVDITVHAPL [SNU114]	2.57 ± 0.049	2.56 ± 0.06	2.43 ± 0.085	2.47 ± 0.046

Sequence	protein stability index (doa10∆)	protein stability index (pdr5∆)	protein stability index (san1∆)	protein stability index (ubr1∆)
VFLFDIEKVDRENMICK [RRI2]	3.17 ± 0.17	3.24 ± 0.14	2.88 ± 0.19	3.29 ± 0.12
LSPPEFLFHAISGREGL [RPO31]	2.17 ± 0.047	1.79 ± 0.053	1.48 ± 0.14	1.63 ± 0.046
KKLDDKPSLVDVHLLES [RPN6]	1.1 ± 0.12	1.29 ± 0.14		
FPVSLSQPSKKSFANHT [SIR4]	2.82 ± 0.051	2.87 ± 0.046	3.01 ± 0.054	3 ± 0.039
QEKQEQQEQDKKKKSNH [PRE6]	1.97 ± 0.048	1.81 ± 0.044	2.55 ± 0.06	1.65 ± 0.04
VSMITDHNALPQRCTFA [POP1]	2.97 ± 0.18	3.01 ± 0.11	2.3 ± 0.18	2.73 ± 0.13
LSRNGKPVMEVTSSFFY [FAS1]	3.04 ± 0.077	2.99 ± 0.089	2.79 ± 0.086	2.6 ± 0.073
VMGTPLTNMMSPMGNAY [PGD1]	2.03 ± 0.14	2.24 ± 0.21	1.62 ± 0.18	
YLVEAPWNDDYPFLLSF [YML103C/NUP188]	1.4 ± 0.048	1.69 ± 0.066	1.43 ± 0.097	1.61 ± 0.072
ISSAKLDKFTDGGLFTL [QCR2]	2.42 ± 0.13	3.06 ± 0.15	3.23 ± 0.088	3.21 ± 0.14
QGLNILEWLENPSNTPD [FAS1]	3.2 ± 0.12	3.06 ± 0.086	3.41 ± 0.051	3.14 ± 0.058
GTLWAHVLKTVDYGGAE [SNU114]	1.44 ± 0.084	1.32 ± 0.057	1.65 ± 0.16	1.36 ± 0.057
QQFNLHEILSEPAIEEE [MED1]	2.94 ± 0.15	3.1 ± 0.12	2.98 ± 0.17	3.26 ± 0.13
YIHRIGRTGRAANEGTA [PRP28]	3.1 ± 0.11	3.29 ± 0.1	3.26 ± 0.053	3.29 ± 0.071
LSATQFTQPALTLMEKA [FAS1]	2.37 ± 0.073	2.56 ± 0.058	2.7 ± 0.049	2.58 ± 0.054
KEEFSSAENRDEKDYLT [CSE2]	2.79 ± 0.083	2.85 ± 0.086	2.65 ± 0.065	2.99 ± 0.12
KIEGCISQVSSIHAIGS [RPB7]	1.9 ± 0.11	2.48 ± 0.16	2.11 ± 0.1	2.17 ± 0.15
ILGIHTSKMNLSEDVNL [RPT2]	3.03 ± 0.12	3.16 ± 0.081	3 ± 0.13	3.14 ± 0.067
YSLEAIKLGSTAIGIAT [PUP2]	1.54 ± 0.066	1.79 ± 0.08	1.43 ± 0.15	1.32 ± 0.069
YNIELPLPPRIDPSVTM [RPT1]	2.44 ± 0.21	2.73 ± 0.088	2.47 ± 0.12	1.95 ± 0.083
LLKELSKNAQFICTTFR [SMC3]	2.45 ± 0.063	2.01 ± 0.052	1.84 ± 0.1	1.94 ± 0.048
VTPTKTEVIIRATRTQD [RPS3]	1.86 ± 0.049	1.91 ± 0.044	2.57 ± 0.069	1.91 ± 0.033
ETITTKRVPNPNFLGNC [SWP82]	2.68 ± 0.054	2.58 ± 0.047	2.18 ± 0.05	2.32 ± 0.048
LYVPHSENRFPGWDFET [RPL5]	2.44 ± 0.12	2.89 ± 0.069	2.21 ± 0.1	2.68 ± 0.13
YSDENDPSISNNIRQAI [RRP4]	2.53 ± 0.077	2.75 ± 0.066	3 ± 0.065	2.47 ± 0.061
FMDVITLDATNENFRLV [RPS4A]		3.44 ± 0.28	2.72 ± 0.25	3 ± 0.18
